This is an account of results in patent US20240294622A1 (SUZHOU TRANSCENTA THERAPEUTICS, published 2024).

One may read the EC50 as the concentration giving half of the maximal effect.

Bounds are passed on as bounds.

In experiment [1] the target is T1, human gremlin-2 (R&D) (human, UniProt Q9H772 22-168, limits assumed).
T1 construct: also called GREM2
T1 sequence (looked up): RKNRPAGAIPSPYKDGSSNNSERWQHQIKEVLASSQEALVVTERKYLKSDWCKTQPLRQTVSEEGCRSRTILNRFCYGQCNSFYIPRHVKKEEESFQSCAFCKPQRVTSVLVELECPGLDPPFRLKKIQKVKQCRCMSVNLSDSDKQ
The experiment in a line: ELISA on coated human gremlin-2 (R&D, 0.5ug/ml), anti-mouse IgG-HRP. The protocol:
(§1) In addition, the specificity of the binding of 14E3 and a benchmark antibody was assessed with ELISA. Briefly, clear polystyrene plates (BEAVER) were coated with 100 μl/well of a […] hGREM1 (ACRO), or human gremlin-2 (R&D), human COCO (R&D) and human DAN protein (R&D) in high pH coating buffer overnight at 4° C. Then the plates were washed once on an automatic plate washer using PBS+0.1% Tween 20 (Sigma). 100 μl of block solution consisting of PBS+1% BSA+1% normal goat serum+0.5% Tween 20 (Sigma) was added to each well and incubated at room temperature for 2 hours. Then 100 ul of antibodies in antibody dilution buffer containing PBS+1% BSA+1% normal goat serum+0.01% Tween 20 starting from 2 μg/ml and then 5 fold serial dilution were added to each well of the plate and incubated for 1 hours at room temperature. Afterward the plates were washed three times with 200 ul of PBS+0.1% Tween20 followed by adding 100 μl/well 1:10000 Goat anti mouse IgG-HRP (Abcam), and incubate for 1 hour at room temperature. They were then washed 3× with PBS+0.1% Tween20. Finally, 100 µl/well of TMB (Pierce) was added to each well and after 5 minutes add 50 ul of stop solution to each well. The plates were read on a Multiscan FC microplate reader (Thermo Scientific) at […].

Experiment [2] concerns the target T2, human COCO (R&D) (human, UniProt Q8N907 23-189, limits assumed).
T2 sequence (looked up): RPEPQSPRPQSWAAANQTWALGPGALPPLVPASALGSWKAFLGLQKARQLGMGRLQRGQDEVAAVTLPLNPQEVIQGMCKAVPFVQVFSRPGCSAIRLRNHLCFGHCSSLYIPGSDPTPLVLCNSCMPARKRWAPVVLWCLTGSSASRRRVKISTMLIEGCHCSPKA
The experiment in a line: ELISA on coated human COCO (R&D, 0.5ug/ml), anti-mouse IgG-HRP. The protocol:
as §1
In general terms: In an ELISA, binding on a coated surface is turned into a signal by an enzyme label.

Experiment [3] addresses T3, human Gremlin_Q27P/N33T (C-terminal His-tag) (human, UniProt O60565 25-184 at identity 1.00)).
T3 construct: culture supernatant used
T3 chain: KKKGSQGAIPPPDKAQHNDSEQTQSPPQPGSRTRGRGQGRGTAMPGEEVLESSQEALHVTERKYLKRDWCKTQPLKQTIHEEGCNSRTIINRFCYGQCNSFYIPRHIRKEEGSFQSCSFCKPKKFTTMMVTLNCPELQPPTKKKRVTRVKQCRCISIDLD
The experiment in a line: BLI (Octet): antibody loaded on AHC sensor, supernatant of the gremlin variant as analyte. The protocol:
The supernatant for Gremlin WT and mutants to be tested were added in the Association Column of the plate, 100 ul per well. Media or KD buffer was used as a reference control. Put AHC sensors in the 1st Baseline Column for 60 s to get the 1st baseline, then in the Loading Column for 300 s to capture the Gremlin antibody. After that, put the sensors in the 2nd Baseline Column for 60 s to get the 2nd baseline. Then put them in the Association Column for 300 s to let Gremlin/Gremlin Ab associate completely, put the sensors in the dissociation Column for 300 s. Analyze the group data by ForteBio (Octet96)
Background: BLI is a label-free optical method that tracks binding on a fibre tip over time.

Experiment [4] deals with T4, HGREM1-His (ACRO) (human, UniProt O60565 25-184).
T4 construct: Lys25-Asp184 of NP_037504 with C-terminal polyhistidine tag (ACRO GR1-H52H3); they are put here; also called hGREM1 (ACRO); human gremlin (ACRO)
T4 sequence: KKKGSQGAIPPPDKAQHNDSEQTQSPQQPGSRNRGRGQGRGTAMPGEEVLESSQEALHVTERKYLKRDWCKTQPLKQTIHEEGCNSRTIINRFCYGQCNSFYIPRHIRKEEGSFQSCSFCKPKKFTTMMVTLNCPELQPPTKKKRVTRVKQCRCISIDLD
Description: ELISA on coated Gremlin-his (column Gremlin). The protocol: Binding affinities to hGREM1 and XM5 were also compared. Briefly, XM5-Fc or Gremlin-his […] was coated. 100 μl of block solution consisting of PBS+1% BSA+1% normal goat serum+0.5% Tween 20 (Sigma) was added to each well and incubated at room temperature for 2 hours. 4-fold serial antibody dilution from 2 μg/ml were added. Afterward the plates were washed three times with 200 ul of PBS+0.1% Tween20 followed by adding 100 μl/well 1:10000 Goat anti mouse IgG-HRP (abeam), and incubate for 1 hour at room temperature. They were then washed 3× with PBS+0.1% Tween20. Finally, 100 μl/well of TMB (InnoReagents) was added to each well and after 2 minutes add 50 ul of stop solution to each well. The plates were read on a Multiscan FC microplate reader (Thermo Scientific) at […]. The EC50 values were show in table below.

Experiment [5] deals with T4, HGREM1-His (ACRO). The experiment in a line: competition ELISA, Gremlin-his binding to coated BMP7.
The target in experiment [6] is T4, HGREM1-His (ACRO). The experiment in a line: ELISA on coated Gremlin-his; unit from the axis Ab(nM). The protocol: Clear polystyrene plates (BEAVER) were coated with 100 μl/well of a 0.5 μg/ml human gremlin (ACRO) and DAN (Sinobiological) in high pH coating buffer overnight at 4° C. Then the plates were washed once on an automatic plate washer using PBS+0.1% Tween 20 (Sigma). 100 μl of block solution consisting of PBS+1% BSA+1% normal goat serum+0.5% Tween 20 (Sigma) was added to each well and incubated at room temperature for 2 hours. Then 100 ul of antibodies (hybridoma or chimeric antibody 36F5, chimeric antibody 67G11, chimeric antibody 42B9) in antibody dilution buffer containing PBS+1% BSA+1% normal goat serum+0.01% Tween 20 starting from 2 μg/ml (13.33 nM) and then 4 fold serial dilution were added to each well of the plate and incubated for 1 hours at room temperature. Afterward the plates were washed three times with 200 ul of PBS+0.1% Tween20 followed by adding 100 μl/well 1:10000 Goat anti mouse IgG-HRP or mouse anti-human IgG-HRP (abcam), and incubate for 1 hour at room temperature. They were then washed 3× with PBS+0.1% Tween20. Finally, 100 μl/well of TMB (InnoReagents) was added to each well and after 2 minutes add 50 ul of stop solution to each well. The plates were read on a Multiscan FC microplate reader (Thermo Scientific) at 450 nm.

B1: 14E3 (antibody, V domains shown)
VH: QIQLVQSGPELKKPGETVKISCKTSGSTFTTYGMAWMKQAPGKGLTWMGWINTLSGEPTYADDFKGRFAFSLKTSANTAYLQINNLKNEDAATYFCAREPMDYWGQGTSVIVSS
VL: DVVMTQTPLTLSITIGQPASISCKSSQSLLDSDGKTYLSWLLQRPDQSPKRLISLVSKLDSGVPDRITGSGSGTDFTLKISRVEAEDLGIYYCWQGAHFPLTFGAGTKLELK
notes: mouse hybridoma antibody; also called hybridoma 14E3; anti-gremlin1 antibody 14E3
As to B1, the binding result in experiment [1] is reported as “no binding (tested: 1 ug/ml)”; in experiment [2], “no binding (tested: 1 ug/ml)”; in experiment [3], “binds”.

B2: 36F5 (antibody, V domains shown)
VH: QVQLQQSGAELARPGASVKLSCKASGYSFTSSGIGWVKQRSGQGLEWIGEIYPRSGNTYNNEKFKGKATLTADKSSSTVYMELRSLTSEDSAVYFCVREAYSHHYYAMDYWGQGTSVTVFS
VL: DVLMTQTPLSLPVSLGGQASISCRSSQSLLHSNGNTYLEWYLQKPGQSPKLLIYKVSNRFSGVPDRLSGSGSGTDFTLKISRVEAEDLGVYYCFQGSHVPFTFGSGTKLEIN
notes: mouse hybridoma antibody; also called hybridoma 36F5
Turning to B2, the figures for the EC50 in experiment [4] and in experiment [6] were 0.0147 µg/mL and 0.0309 nM, respectively. Besides, in experiment [5], the maximal blocking percentage is not below 50%.
